Assay results as given in patent US20260116991A1 (HAINAN SIMCERE ZAIMING PHARMACEUTICAL, published 2026).
Numbering of substitutions follows the chain as printed.

B1: F1.83.6 (antibody, human IgG1, kappa, V domains shown)
VH: QVQLQQSGPELVKPGASVKISCKASGYAFSSSWMNWVKQRPGKGLEWIGRIYPGDGDTNYNGRFKGKATLTVDKSSSTAYMQLSSLTSEDSAVYFCARGGVFTMALDHWGQGTTLTVSS
VL: DIQMTQSPSSLSASLGGKVTITCKASQDINKYIAWYQHKPGKGPRLLIHYTSTLQPGIPSRFSGSGSGRDYSFSISNLEPEDIATYYCLQYDNLFTFGGGTKLEIKR
notes: Human-murine chimeric antibody
B2: F1.78.24 (antibody, human IgG1, kappa, V domains shown)
VH: QVQLQQSGAELVKPGASVKMSCKASGYTFTTYPIEWMKQNHGKSLEWIGNFHPYNDDTNYNVKFKGKATLTVEKSSSTVYLELSRLTSDDSALYYCARRREYYGSFDVWGTGTTVTVSS
VL: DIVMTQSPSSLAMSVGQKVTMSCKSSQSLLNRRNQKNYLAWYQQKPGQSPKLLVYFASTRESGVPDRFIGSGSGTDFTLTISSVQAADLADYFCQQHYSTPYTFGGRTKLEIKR
notes: as for B1
B3: F2.23.8 (antibody, human IgG1, kappa, V domains shown)
VH: QVQLQQSGAELVRPGASVKLSCKASGYTFTDYEMHWVKQTPVHGLEWFGAIDPETGGTAYNQKFRAKATLTADKSSSTAYMELRSLTSEDSAVYYCTRFYSFAYWGQGTLVTVSA
VL: DVVMTQTPLSLPVSLGDQASISCRSSQSLVHSNGNTYLQWYLQKPGQSPKLLIYKVSNRFSGVPDRFSGSGSGTDFTLKITRVEAEDLGVYFCSQSTHVPYTFGSGTKLEIKR
notes: as for B1
B4: F2.39.2 (antibody, human IgG1, kappa, V domains shown)
VH: B3 VH with L20V, V37M, F48I, I51N, D52E, G57R, T58S, N61D, R65K, A66G
VL: B3 VL with S28G, S32N, Q39H, T81S, S96N, Y101P, S105G
notes: as for B1
B5: F2.92.1 (antibody, human IgG1, kappa, V domains shown)
VH: B3 VH with T28I, T30S, M34I, W47C, F48I, I51V, R65K, A66G, Y95F, A115T
VL: B3 VL with A19G, T81S, S94C, P100L, Y101P, S105G
notes: as for B1
B6: F1.41.17 (antibody, human IgG1, kappa, V domains shown)
VH: EVQLVESGGDSVKPGGSLKLSCAASGFTFSSYGMSWVRQTPDKRLEWVATINSGGSYTYYQDSVKGRFTISRDNAKNTLYLQMSSLKSEDTAIYYCVRHHYGSSYDYFDYWGQGTTLTVSS
VL: DIVMTQAAPSVPVMPGESVSISCRSSKSLLHSNGNTHLYWFLQRPGQSPQLLIYRMSNLASGVPDRFSGSGSGTAFTLRISRVEAEDVGVYYCMQHLEYPLTFGAGTKLELKR
notes: as for B1
B7: F1.2.14 (antibody, human IgG1, kappa, V domains shown)
VH: RVQLQQSGAELVKPGASVRMSCKASGYTFTAYSIEWMKQNLGKSLEWIGNFRPYNDDTKYNENFKGRATLTVEKSSATVYLELSRLTSDDSAVYYCARSGPTDYFDYWGQGTTLIVSS
VL: DIQMTQSPASLSASVGETVTITCRASDNIYSYLAWYQQKQGQSPQLLVYNAKTLAEGVPSRFSGSGSVTQFSLKIISLQPEDFGTYYCQHHFGTPRTFGGGTKLEIKR
notes: as for B1
B8: F1.57.21 (antibody, human IgG1, kappa, V domains shown)
VH: QVQLQQSGAELARPGASVKLSCKASGYTFTSYGISWVKQITGQGLEWIGEIYPRSESTYYNEKFKGKATLTADKSSSTAYMELRSLTSEDSAVYFCARDYGNIYSFAYWGQGTLVTVSA
VL: B7 VL with A25T, D27E, Q42K, V68G, I76N, T85S, F92Y, R96L, G100A, I106L
notes: as for B1
B9: F1.21.8 (antibody, human IgG1, kappa, V domains shown)
VH: EVQLQQSGPELVKPGASVKISCKTSGFLFTGHYMHWVKSSHGNILDWIGYIYPYNAISFYNQKFKGKATLTVDKSSNTAYMELRSLTSEDSAVYYCARGDYGNYVTAYWGQGTLVTVSA
VL: DVLMTQTPLSLPVSLGDQASISCRSSQSIVHSSGNTYLEWYLQKPGQSPKLLIYKVSNRFSGVPDRFSGSGSGTDFTLKISRVEAEDLGVYYCFQGSHLPWTFGGGTKLDIKR
notes: as for B1
B10: F1.92.17 (antibody, human IgG1, kappa, V domains shown)
VH: EVQLQQSGPELVKPGASVKMSCKASGYTFTDYNMHWVRQSHGKSLEWIGYINPNNGDTIYNQNFKGKATLTVNKSSSTAYMELRSLTSEDSAVYYCSRTITYYYSMDYWGPGTSVTVSS
VL: QIVLTQSPALMSASPGEKVTMTCSASSSVSYMYWYQQKPRSSPKPWIYLTSNLASGVPARFSGSGSGTSYSLTISSMEAEDAATYYCQQWSSNPLTFGAGTKLELKR
notes: as for B1
B11: F1.73.9 (antibody, human IgG1, kappa, V domains shown)
VH: QVQLKQSGAELVRPGASVKLSCKASGYTFTDYYINWVKQRPGQGLEWIARIYPGSGNTYYNEKFKGKATLTAEKSSSTAYMQFSSLTSEDSAVYFCACSTYYTMDYWGQGTSVTVSS
VL: QIVLTQSPAIMSASLGERVTMTCTASSGVSSSYLHWYQQKPGSSPKLWIYTTSNLASGVPARFSGSGSGTSYSLTISSMEAEDAATYYCHQYHRSPYTFGGGTKLEIKR
notes: as for B1
B12: F1.42.8 (antibody, human IgG1, kappa, V domains shown)
VH: HVQLQQPGAELVKPGASVKLSCKASGYTFTSYWMHWVRQRPGQGLEWIEMIHPNSGSTNYNEKFKSKATLTVDKSSSTAYMQLSSLTSEDSAVYYCARGNYNSSLYAMDYWGQGTSVTVSS
VL: DIQMTQTTSSLSASLGDRVTISCSASQGISNYLNWYQQKPDGTVKLLIYYASNLHSGVPSRFSGSGSGTAYSLTISNLEPEDIATYYCQQYSILPYTFGGGTKLEIKR
notes: as for B1
B13: F2.169.2 (antibody, human IgG1, kappa, V domains shown)
VH: EVQLVETGGGLVQPKGSLKLSCAASGFSFNTNAMNWVRQAPGKGLEWVARIRSKSNNYATYYADSVKDRFTISRDDSQSMLYLQMNNLKTEDTAMYYCVRDGYYVLFAYWGQGTLVTVSA
VL: B9 VL with S25F, H31N, S33N, Y41F, L99V, W101F, G105T, D110E
notes: as for B1

The binders below were run against T1, monkey GPC3-His protein (monkey) (assay: SPR, antibody captured on Protein A chip, monkey GPC3-His analyte;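 note: run at 25 °C with 240 s association and up to 600 s dissociation, double-referenced, kinetics fitted to a 1:1 Langmuir binding model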).
T1 construct: Bought recombinant protein; also called monkey GPC3 protein
Protocol: The flow cell was set at 25° C. The sample block was set at 16° C. Both were pretreated with the running buffer. In each cycle, first, the antibody to be tested was captured using the Protein A chip, and then a single concentration of GPC3 antigen protein was injected. […] The association was determined by injecting different concentrations of human GPC3-His in the solution and maintaining for 240 s, wherein the flow rate was 30 μL/min, and the protein was diluted at a 1:1 dilution ratio from 200 nM to obtain 5 concentrations in total. The dissociation phase was monitored for up to 600 s and triggered by switching from the sample solution to the running buffer. The surface was regenerated by washing with 10 mM glycine solution (pH 1.5) at a flow rate of 30 μL/min for 30 s. The difference in bulk refractive index was corrected by subtracting the responses obtained from the goat anti-human Fc surface. Blank injections (double reference) were also subtracted. To calculate the apparent KD and other kinetic parameters, the Langmuir 1:1 model was used.

| Binder | Kd | koff | kon |
| --- | --- | --- | --- |
| B1 | 3.4 nM | 0.000503 s⁻¹ | 148000 M⁻¹ s⁻¹ |
| B2 | 3.26 nM | 0.000639 s⁻¹ | 196000 M⁻¹ s⁻¹ |
| B3 | 13.5 nM | 0.0038 s⁻¹ | 281000 M⁻¹ s⁻¹ |
| B4 | 4.28 nM | 0.00219 s⁻¹ | 512000 M⁻¹ s⁻¹ |
| B5 | 0.353 nM | 0.000221 s⁻¹ | 628000 M⁻¹ s⁻¹ |
| B6 | 4.42 nM | 0.00213 s⁻¹ | 482000 M⁻¹ s⁻¹ |
| B7 | 1.25 nM | 0.000156 s⁻¹ | 125000 M⁻¹ s⁻¹ |
| B8 | 13 nM | 0.00306 s⁻¹ | 236000 M⁻¹ s⁻¹ |
| B9 | 0.1 nM | 4.65e-05 s⁻¹ | 464000 M⁻¹ s⁻¹ |
| B10 | 5.07 nM | 0.000139 s⁻¹ | 27400 M⁻¹ s⁻¹ |

These binders were tested against T2, human GPC3-His protein (human, UniProt P51654 25-559) (assay: SPR, antibody captured on Protein A chip, human GPC3-His analyte;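 note: measured at 25 °C flow cell, human GPC3-His injected at five concentrations up to 200 nM, 240 s association, up to 600 s dissociation, double-referenced, fitted to Langmuir 1:1 model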).
T2 construct: also called human GPC3 protein; not shown: His tag

| Binder | Kd | koff | kon |
| --- | --- | --- | --- |
| B1 | 5.88 nM | 0.000493 s⁻¹ | 83900 M⁻¹ s⁻¹ |
| B2 | 7.06 nM | 0.00075 s⁻¹ | 106000 M⁻¹ s⁻¹ |
| B3 | 20.4 nM | 0.00327 s⁻¹ | 161000 M⁻¹ s⁻¹ |
| B4 | 6.97 nM | 0.0021 s⁻¹ | 302000 M⁻¹ s⁻¹ |
| B5 | 0.6 nM | 0.000242 s⁻¹ | 404000 M⁻¹ s⁻¹ |
| B6 | 7.91 nM | 0.0021 s⁻¹ | 265000 M⁻¹ s⁻¹ |
| B7 | 2.37 nM | 0.00017 s⁻¹ | 71600 M⁻¹ s⁻¹ |
| B8 | 21.3 nM | 0.00278 s⁻¹ | 131000 M⁻¹ s⁻¹ |
| B9 | 0.271 nM | 6.91e-05 s⁻¹ | 255000 M⁻¹ s⁻¹ |
| B10 | 7.46 nM | 0.00017 s⁻¹ | 22800 M⁻¹ s⁻¹ |

What follows are binders tested against T1, monkey GPC3-His protein (assay: ELISA, monkey GPC3-His coated;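 note: Plate-coated antigen at 1 µg/mL, antibody binding 2 h at 37 °C, detected with HRP-labeled secondary antibody and TMB, absorbance at 450 nm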).

| Binder | OD450 at 0.0001 nM | OD450 at 0.001 nM | OD450 at 0.01 nM | OD450 at 0.1 nM | OD450 at 1 nM | OD450 at 10 nM | OD450 at 100 nM |
| --- | --- | --- | --- | --- | --- | --- | --- |
| B11 | 0.05 OD450 | 0.06 OD450 | 0.18 OD450 | 0.73 OD450 | 1.14 OD450 | 1.27 OD450 | 1.47 OD450 |
| B12 | 0.05 OD450 | 0.08 OD450 | 0.35 OD450 | 1.61 OD450 | 2.31 OD450 | 2.46 OD450 | 2.67 OD450 |
| B1 | 0.05 OD450 | 0.05 OD450 | 0.08 OD450 | 0.43 OD450 | 0.62 OD450 | 0.32 OD450 | 0.55 OD450 |
| B2 | 0.05 OD450 | 0.06 OD450 | 0.17 OD450 | 0.55 OD450 | 0.73 OD450 | 0.21 OD450 | 0.37 OD450 |
| B3 | 0.27 OD450 | 0.28 OD450 | 0.58 OD450 | 1.8 OD450 | 2.22 OD450 | 2.24 OD450 | 2.25 OD450 |
| B4 | 0.21 OD450 | 0.34 OD450 | 0.66 OD450 | 1.98 OD450 | 2.36 OD450 | 2.28 OD450 | 2.35 OD450 |
| B5 | 0.23 OD450 | 0.27 OD450 | 0.65 OD450 | 1.9 OD450 | 2.3 OD450 | 2.24 OD450 | 2.34 OD450 |
| B6 | 0.05 OD450 | 0.06 OD450 | 0.11 OD450 | 0.46 OD450 | 0.83 OD450 | 0.81 OD450 | 1.24 OD450 |
| B7 | 0.05 OD450 | 0.05 OD450 | 0.07 OD450 | 0.27 OD450 | 0.86 OD450 | 1.03 OD450 | 1.55 OD450 |
| B8 | 0.05 OD450 | 0.06 OD450 | 0.14 OD450 | 0.77 OD450 | 1.68 OD450 | 2.15 OD450 | 2.3 OD450 |
| B9 | 0.05 OD450 | 0.06 OD450 | 0.12 OD450 | 0.51 OD450 | 1 OD450 | 1.11 OD450 | 1.49 OD450 |
| B13 | 0.05 OD450 | 0.07 OD450 | 0.27 OD450 | 1.36 OD450 | 2.27 OD450 | 2.64 OD450 | 1.99 OD450 |
| B10 | 0.05 OD450 | 0.05 OD450 | 0.06 OD450 | 0.15 OD450 | 0.64 OD450 | 0.62 OD450 | 0.58 OD450 |

The binders below were run against T3, monkey GPC3 on HEK293T-monkey GPC3 cells (monkey) (assay: FACS on HEK293T-monkey GPC3 cells;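 note: flow cytometry binding of test antibodies to the cells, read as mean fluorescence intensity, with half-maximal concentration taken from fitted curves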).
T3 construct: whole, on cells

| Binder | EC50 | Max MFI |
| --- | --- | --- |
| B11 | 0.32 nM | 5700 MFI |
| B12 | 0.27 nM | 7620 MFI |
| B1 | 0.53 nM | 5880 MFI |
| B2 | 0.33 nM | 6580 MFI |
| B6 | 0.23 nM | 6210 MFI |
| B7 | 1.1 nM | 4740 MFI |
| B8 | 0.77 nM | 5380 MFI |
| B9 | 0.29 nM | 6320 MFI |
| B13 | 0.51 nM | 9880 MFI |
| B10 | 2.26 nM | 5520 MFI |
